Reference: PMC6423008
Where “and” joins values, the source holds several entries; their conditions need not be identical. Equal entries are not always repeated.

Experiments:
His98 [1] = molecular target: His98 (UniProt position 99, SEKFSHEQEVK); conditions: apo chicken liver BABP; cited from earlier work
His57 = His57 (UniProt position 58, HYSGGHTMTNK); assay: NMR; conditions: 283 K (10 °C), 50 mM KCl plus 20 mM potassium phosphate, folded, 0.5 mM protein
His52 = His52 (UniProt position 53, FTWSQHYSGGH); assay: NMR; conditions: 283 K (10 °C), 50 mM KCl plus 20 mM potassium phosphate, folded, 0.5 mM protein
His98 [2] = molecular target: His98 (UniProt position 99, NFPNYHQTSEI); assay: NMR; conditions: 283 K (10 °C), 50 mM KCl plus 20 mM potassium phosphate, folded, 0.5 mM protein
[3] = 0.05% NaN3, holo: doubly ligated I-BABP:GCDA:GCA = 1.0:1.5:1.5 complex

Row | Substance | pKa (His98 [1]) | pKa (His57; 0.05% NaN3, apo (ligand-free)) | pKa (His57; [3]) | pKa (His52; 0.05% NaN3, apo (ligand-free)) | pKa (His52; [3]) | pKa (His98 [2]; 0.05% NaN3, apo (ligand-free)) | pKa (His98 [2]; [3])
1 | Liver bile acid-binding protein (cL-BABP, liver basic fatty acid-binding protein) (Gallus gallus) | 4.7 | – | – | – | – | – | –
2 | Ileal bile acid-binding protein (I-BABP, gastrotropin, FABP6) (Homo sapiens) | – | 6.4 | 7.9 | 6.7 | 6.6 and 6.5 and 6.8 | 6.6 and 6.7 and 6.8 | 7.0 and 7.2
